From patent US20240327477A1, “COMPOSITIONS AND METHODS FOR THE TREATMENT OF TDP-43 PROTEINOPATHIES” (SOLA BIOSCIENCES LLC, priority 2020, published 2024)

Tests used:
Assay type in all cases: cell-based
[1] = target: T1, phosphorylated GFP-TDP43CTF reporter (Homo sapiens, UniProt Q13148); test: Immunoblot with anti-phospho TDP43 antibody (cell extracts and fractions); conditions: cell extracts, anti-phosphoTDP43 antibody, Table 13 (FIG. 12)
T1 construct: expressed in transfected cells; host or cells: HEK293

GFP-TDP43CTF = target: T2, GFP-TDP43CTF (Homo sapiens, UniProt Q13148); test: Fluorescence microscopy of GFP-TDP43CTF aggregation (GFP foci) in transfected HEK293 cells; conditions: HEK293 cells; for % Aggregation (normalized to GFP-TDP43CTF alone): GFP-TDP43CTF reporter
T2 construct: expressed in transfected cells; host or cells: HEK293
Method: (§1) Expression vector plasmids encoding various protein constructs were transfected into HEK293 cells with Lipofectamine 3000 transfection reagent (Thermo Fisher Scientific). Cell lysates were analyzed for expressed proteins using immunoblot assays. Samples of culture media were centrifuged to remove debris prior to analysis. Cells were lysed in a lysis buffer (10 mM Tris-HCl, pH 8.0, 150 mM NaCl, 10 mM EDTA, 2% SDS) containing 2 mM PMSF and protease cocktail (Complete Protease Inhibitor Cocktail; Sigma). After brief sonication, the samples were analyzed for expressed proteins using immunoblot assays. For immunoblot analysis, samples were boiled in an SDS-sample buffer and run on polyacrylamide electrophoresis. Thereafter, the separated protein bands were transferred to a PVDF membrane.
In some instances, aggregation of TDP-43 (full-length of C-terminal fragment) GFP reporter constructs (described below) were detected in vivo using fluorescence microscopy. Cultured cells expressing the reporter constructs as well as the fusion protein comprising the J domain and TDP-43-binding domain were washed with PBS and fixed with 4% paraformaldehyde in PBS for 5 minutes. After three 5-min washes with PBS, nuclear DNA was stained with DAPI. Percentage of cells containing TDP-43 (GFP foci) in transfected cells was counted.
We first investigated whether the fusion molecule of the present invention targeting TDP-43 ameliorates its aggregation in cultured cells. To this end, we generated GFP-based reporter constructs GFP-TDP43 and GFP-TDP43, wherein GFP was fused at its C-terminus to either the full-length human TDP-43 protein or the C-terminal fragment TDP-43 which is known to form cytoplasmic aggregation and cytotoxicity (See Table 8 below). HEK293 cells were cultured and transfected with the plasmids encoding the full-length TDP43 or the C-terminal fragment of TDP43, containing the C-terminal 207 amino acids TDP-43 (amino acids 208-414 of human TDP-43) as a GFP fusion [GFP-TDP43FL (SEQ ID NO: 101) or GFP-TDP43CTF (SEQ ID NO: 102)].

GFP-TDP43FL [2] = target: T3, GFP-TDP43FL (Homo sapiens, UniProt Q13148); test: Immunoblot (anti-GFP) of reporter level in cell extracts; conditions: cell extracts (FIG. 5)
T3 construct: expressed in transfected cells; host or cells: HEK293
Method: as §1
(§2) Expressed proteins were detected using a chemiluminescent signal. Briefly, blots were reacted with a primary antibody capable of binding the particular epitope (e.g., GFP). After rinsing away the unreacted primary antibody, a secondary, enzyme-linked antibody (e.g., HRP-linked anti-lgG antibody) was allowed to react with the primary antibody molecules bound to the blots. Following rinsing, a chemiluminescent reagent was added, and the resultant chemiluminescent signals in the blots were captured on X-ray film.

GFP-TDP43FL [3] = target: T3, GFP-TDP43FL; test: Fluorescence microscopy of GFP-TDP43FL aggregation (GFP foci) in transfected HEK293 cells; conditions: GFP-TDP43FL reporter, HEK293 cells, Table 10 (FIG. 3/4)
Method: as §1
In some instances, aggregation of TDP-43 (full-length of C-terminal fragment) GFP reporter constructs (described below) were detected in vivo using fluorescence microscopy. Cultured cells expressing the reporter constructs as well as the fusion protein comprising the J domain and TDP-43-binding domain were washed with PBS and fixed with 4% paraformaldehyde in PBS for 5 minutes. After three 5-min washes with PBS, nuclear DNA was stained with DAPI. Percentage of cells containing TDP-43 (GFP foci) in transfected cells was counted. […]

[4] = target: T1, phosphorylated GFP-TDP43CTF reporter; test: Immunoblot with anti-phospho TDP43 antibody (cell extracts and fractions)
Text: Cells expressing either GFP-TDP43FL (lanes 1 and 7) or GFP-TDP43CTF (lanes 2-6, 8-12) were co-transfected with Construct 3 (lanes 3 and 9), Construct 17 (lanes 4 and 10), Construct 18 (lanes 5 and 11) and Construct 19 (lanes 6 and 12). Soluble fractions (lanes 1-6) and insoluble fractions (lanes 7-12) were probed with anti-phospho TDP43 antibodies.
as §1, §2
Transfected HEK293 cells are homogenized in RIPA buffer (50 mM Tris, pH7.5, 150 mM NaCl, 0.1% NP-40, 0.5% sodium deoxycholate, 0.1% SDS) supplemented with protease inhibitor cocktail, 2 mM PMSF, 10 mM NaF, and 2 mM Na3VO4. After brief sonication, protein concentration is measured by BCA assay kit (Pierce). […]

B1: 15 (protein)
chain: MDYYKILGVDKNASEDEIKKAYRKRALMHHPDRHSGASAEVQKEEEKKFKEVGEAFTILSDPKKKTRYDSGQDIGGGGSGGGGSGGGGSGGGGSAAAEVQLQQSGAELVKPGASVKLSCTASGFNIKDYYMHWVKQRTEQGLEWIGRIDPEDGETKYAPKFQGKATITADTSSNTAYLQLSSLTSEDTAVYYCTIIYYYGSRYVDYWGQGTTLTVSGGGGSGGGGSGGGGSEIVLTQSPTTMAASPGEKITITCSASSSISSSYLHWYQQKPGFSPKLLIYRTSNLASGVPARFSGSGSGTSYSLTIGTMEAEDVATYYCQQGSSIPLTFGSGTKLEI
With B1 the “% Phospho-TDP43 density (normalized to GFP-TDP43CTF alone)” value [1] was 47.89%.

B2: Construct 2: scFv(3B12A)-only control; binds TDP-43 (protein)
scFv: MGTGSEFDIAAAEVQLQQSGAELVKPGASVKLSCTASGFNIKDYYMHWVKQRTEQGLEWIGRIDPEDGETKYAPKFQGKATITADTSSNTAYLQLSSLTSEDTAVYYCTIIYYYGSRYVDYWGQGTTLTVSGGGGSGGGGSGGGGSEIVLTQSPTTMAASPGEKITITCSASSSISSSYLHWYQQKPGFSPKLLIYRTSNLASGVPARFSGSGSGTSYSLTIGTMEAEDVATYYCQQGSSIPLTFGSGTKLEI
For B2, the “aggregation of GFP-TDP43CTF reporter in cells (in words)” value (GFP-TDP43CTF; vs reporter alone) was “did not reduce aggregation” and the “levels of the full-length reporter construct (GFP-TDP43FL), anti-GFP immunoblot (in words)” value (GFP-TDP43FL [2]) was “No differences”.

B3: 2 (protein)
scFv: MGTGSEFDIAAAEVQLQQSGAELVKPGASVKLSCTASGFNIKDYYMHWVKQRTEQGLEWIGRIDPEDGETKYAPKFQGKATITADTSSNTAYLQLSSLTSEDTAVYYCTIIYYYGSRYVDYWGQGTTLTVSGGGGSGGGGSGGGGSEIVLTQSPTTMAASPGEKITITCSASSSISSSYLHWYQQKPGFSPKLLIYRTSNLASGVPARFSGSGSGTSYSLTIGTMEAEDVATYYCQQGSSIPLTFGSGTKLEI
In the case of B3, the “% Aggregation (normalized to GFP-TDP43CTF alone)” value (GFP-TDP43FL [3]) is reported as 5.86%, the “% Aggregation (normalized to GFP-TDP43CTF alone)” value (GFP-TDP43CTF; Table 10 (FIG. 3/4)) is reported as 80.05% and the “% Aggregation (normalized to GFP-TDP43CTF alone)” value (GFP-TDP43CTF; Table 12 (FIG. 8/9A)) is reported as 98.40%. The “% Phospho-TDP43 density (normalized to GFP-TDP43CTF alone)” value [1] was 122.81%.

B4: 11 (protein)
chain: MSVVGLDVGSQSCYIAVARAGGIETIANEFSDRCTPSVISFGSKNRTIGVAAKNQQITHANNTVSNFKRFHGRAFNDPFIQKEKENLSYDLVPLKNGGVGIKVMYMGEEHLFSVEQITAMLLTKLKETAENSLKKPVTDCVISVPSFFTDAERRSVLDAAQIVGLNCLRLMNDMTAVALNYGIYKQDLPSLDEKPRIVVFVDMGHSAFQVSACAFNKGKLKVLGTAFDPFLGGKNFDEKLVEHFCAEFKTKYKLDAKSKIRALLRLYQECEKLKKLMSSNSTDLPLNIECFMNDKDVSGKMNRSQFEELCAELLQKIEVPLYSLLEQTHLKVEDVSAVEIVGGATRIPAVKERIAKFFGKDISTTLNADEAVARGCALQCAILSPAFKVREFSVTDAVPFPISLIWNHDSEDTEGVHEVFSRNHAAPFSKVLTFLRRGPFELEAFYSDPQGVPYPEAKIGRFVVQNVSAQKDGEKSRVKVKVRVNTHGIFTISTASMVEKVPTEENEMSSEADMECLNQRPPENPDTDANEKKVDQPPEAKKPKIKVVNVELPIEANLVWQLGKDLLNMYIETEGKMIMQDKLEKERNDAKNAVEEYVYEFRDKLCGPYEKFICEQDHQNFLRLLTETEDWLYEEGEDQAKQAYVDKLEELMKIGTPVKVRFQEAEERPKMFEELGQRLQHYAKIAADFRNKDEKYNHIDESEMKKVEKSVNEVMEWMNNVMNAQAKKSLDQDPVVRAQEIKTKIKELNNTCEPVVTQPKPKIESPKLERTPNGPNIDKKEEDLEDKNNFGAEPPHQNGECYPNEKNSVNMDLD
For B4, the “% Aggregation (normalized to GFP-TDP43CTF alone)” value (GFP-TDP43CTF; Table 12 (FIG. 8/9A)) was 115.34%.

B5: 19 (protein)
chain: MGKDYYQTLGLARGASDEEIKRAYRRQALRYHPDKNKEPGAEEKFKEIAEAYDVLSDPRKREIFDRYGEEGLKGSEVQLQQSGAELVKPGASVKLSCTASGFNIKDYYMHWVKQRTEQGLEWIGRIDPEDGETKYAPKFQGKATITADTSSNTAYLQLSSLTSEDTAVYYCTIIYYYGSRYVDYWGQGTTLTVSGGGGSGGGGSGGGGSEIVLTQSPTTMAASPGEKITITCSASSSISSSYLHWYQQKPGFSPKLLIYRTSNLASGVPARFSGSGSGTSYSLTIGTMEAEDVATYYCQQGSSIPLTFGSGTKLEI
For B5, the “% Phospho-TDP43 density (normalized to GFP-TDP43CTF alone) Insoluble fraction” value ([4]; insoluble fraction, Table 14 (FIG. 14)) was 22.77% and the “% Phospho-TDP43 density (normalized to GFP-TDP43CTF alone) Soluble fraction” value ([4]; soluble fraction, Table 14 (FIG. 14)) was 11.20%.

B6: Construct 16: comprises a J domain without the consensus HPD sequence (SEQ ID NO: 16), fused to scFv(3B12A) (protein)
chain: MGQDYYSVLGITRNSEDAQIKQAYRRLALKHHPLKSNEPSSAEIFRQIAEAYDVLSDPMKRGIYDKFGEEGLKGGDIGGGGSGGGGSGGGGSGGGGSAAAEVQLQQSGAELVKPGASVKLSCTASGFNIKDYYMHWVKQRTEQGLEWIGRIDPEDGETKYAPKFQGKATITADTSSNTAYLQLSSLTSEDTAVYYCTIIYYYGSRYVDYWGQGTTLTVSGGGGSGGGGSGGGGSEIVLTQSPTTMAASPGEKITITCSASSSISSSYLHWYQQKPGFSPKLLIYRTSNLASGVPARFSGSGSGTSYSLTIGTMEAEDVATYYCQQGSSIPLTFGSGTKLEI
In the case of B6, the “ability to reduce aggregation of the GFP-TDP43CTF reporter construct (in words, with Tables 13 and 14)” value ([4]; HEK293 cells) is reported as “not able to reduce aggregation”.

B7: 16 (protein)
chain: MGQDYYSVLGITRNSEDAQIKQAYRRLALKHHPLKSNEPSSAEIFRQIAEAYDVLSDPMKRGIYDKFGEEGLKGGDIGGGGSGGGGSGGGGSGGGGSAAAEVQLQQSGAELVKPGASVKLSCTASGFNIKDYYMHWVKQRTEQGLEWIGRIDPEDGETKYAPKFQGKATITADTSSNTAYLQLSSLTSEDTAVYYCTIIYYYGSRYVDYWGQGTTLTVSGGGGSGGGGSGGGGSEIVLTQSPTTMAASPGEKITITCSASSSISSSYLHWYQQKPGFSPKLLIYRTSNLASGVPARFSGSGSGTSYSLTIGTMEAEDVATYYCQQGSSIPLTFGSGTKLEI
B7 was tested, and the “% Phospho-TDP43 density (normalized to GFP-TDP43CTF alone)” value [1] was 106.49%.
